Reference: patent US20180222987A1 (Sanofi, published 2018)

What was measured:
[1] = biological target: T1, human CD123 (IL3RA) Strep-II tagged Fc-fusion protein (human); assay: SPR Proteon XPR36, rat IgG captured, CD123-Fc analyte
T1 construct: also called human CD123-Fc
Protocol: Screening of anti-CD123 rat IgGs for binding affinities to human CD123 and cross-reactivities to cyno CD123 was performed with hybridoma supernatants using a Proteon XPR36 (Biorad) in a one-shot kinetics approach. A capture assay was established using a goat anti-rat IgG (112-005-071, Jackson Immuno Research). The capture antibody was coated on GLC chips (176-5011, Biorad) to approx. 8000 RU in the vertical direction using the amine coupling kit (176-2410, Biorad). […] Binding kinetics with human and cyno CD123-Fc fusion protein was measured at 100 μl/min in the horizontal direction with 120 sec. and 600 sec. for association and dissociation, respectively. The CD123-Fc proteins were used in twofold dilutions from 6 nM to 100 nM. PBSET buffer (176-2730, Biorad) was used as assay buffer. Regeneration was achieved by injection of 10 mM Glycine buffer pH 1.5 for 18 sec at 30 μl/min. Data processing and analysis was performed using ProteonManager software v3.0. Fitting of the sensorgrams was done with a 1:1 Langmuir model.

[2] = biological target: T2, human CD3ε/δ-Fc fusion heterodimer (hCD3ε/δ-hFc) (human, UniProt P04234 22-105); assay: SPR single point, hybridoma supernatant
T2 construct: also called CD3ed-Fc; human CD3ε/δ complex; not shown: hinge-CH2-CH3 of human IgG with tag
Protocol: Rats with positive sera were scarified and B cells were fused with mouse myeloma cells. The resulting hybridomas were screened on HEK293 cells transfected with human or cynomolgus CD3ε and CD3δ expression plasmids, on Jurkat E6.1 (CD3+) and Jurkat T3.5 (CD3-) by flow cytometry. Supernatant of Hybridoma clones was used to assess by surface plasmon resonance single point kinetic against human and Macaca fascicularis CD3ε/δ complex by fixing the analyte at 25 nM (data presented in table 3).

T1 sequence (chain, as listed by the source limits assumed): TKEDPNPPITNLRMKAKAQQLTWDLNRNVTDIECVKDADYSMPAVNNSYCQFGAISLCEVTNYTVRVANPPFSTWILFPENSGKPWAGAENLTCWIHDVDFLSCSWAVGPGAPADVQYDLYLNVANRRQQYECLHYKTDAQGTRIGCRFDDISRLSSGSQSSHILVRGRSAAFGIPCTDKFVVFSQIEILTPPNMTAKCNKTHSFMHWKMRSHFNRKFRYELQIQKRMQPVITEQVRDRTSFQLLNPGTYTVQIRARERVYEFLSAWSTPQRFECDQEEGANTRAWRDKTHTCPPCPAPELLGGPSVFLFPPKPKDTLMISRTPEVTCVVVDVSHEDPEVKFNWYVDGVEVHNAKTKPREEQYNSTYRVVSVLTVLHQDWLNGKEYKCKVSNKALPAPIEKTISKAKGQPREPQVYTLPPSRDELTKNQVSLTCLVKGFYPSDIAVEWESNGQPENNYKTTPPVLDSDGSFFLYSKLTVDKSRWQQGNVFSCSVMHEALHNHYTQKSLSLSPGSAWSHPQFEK
T2 sequence (chain, as listed by the source mutant, chain 1 of 2): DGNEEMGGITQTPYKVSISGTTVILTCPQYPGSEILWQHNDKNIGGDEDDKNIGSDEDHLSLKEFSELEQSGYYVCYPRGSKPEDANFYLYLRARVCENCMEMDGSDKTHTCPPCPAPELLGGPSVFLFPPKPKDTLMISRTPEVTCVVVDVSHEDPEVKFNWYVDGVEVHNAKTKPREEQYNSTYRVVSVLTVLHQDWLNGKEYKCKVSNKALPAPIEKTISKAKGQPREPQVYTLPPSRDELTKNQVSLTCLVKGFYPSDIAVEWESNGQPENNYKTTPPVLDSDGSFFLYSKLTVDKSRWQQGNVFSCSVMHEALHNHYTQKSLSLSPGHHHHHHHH
T2 sequence (P04234 22-105, stated change not applied, chain 2 of 2): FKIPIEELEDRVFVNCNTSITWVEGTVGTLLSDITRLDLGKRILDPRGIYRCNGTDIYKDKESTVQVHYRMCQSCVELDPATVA

Binder | koff [1] [s⁻¹] | RU at 25 nM [2] [RU]
3B10-E6 anti-CD123 antibody (antibody, V domains shown, rat IgG, hybridoma supernatant; also called BFX - 3B10) VH: QVQLQQSGPELRRPGSSVRLSCKASGYRIKDFLIHWIKNRPEHGLEWIGWIDPEDGETKYAQKFQTKATLTADTSSNTAYMQLSSLTSEDTATYFCARWGDVYYGLMRGHVMDAWGQGTSVTVSS VL: DVLMTQTPVSLPVSLGGQVSISCRSSQSLVHSDGDTYLHWYLQKPGQSPQLLIYRVSNRFSGVPDRFSGSGSGTDFTLKISRVEPEDLGLYYCLQTTHFPPWTFGGGTKLEMK | ~5e-05 | –
11H3-E5 anti-CD3 antibody (antibody, V domains shown, rat mAb, hybridoma supernatant) VH: EVQLVETGGSLVQPGKSLKLTCATSGFTFSNAWMHWVRQSPEKQLEWVAQIKAKSNNYATYYAESVKGRFTISRDDSKSSVYLQMNSLKEEDTAIYYCRGTYYAYKPFDYWGQGVMVTVSS VL: DVVMTQTPVSLSVSLGGQVSISCRSSQSLVHDNGNTYLSWSLQKPGQSPQVLIYKVSNRFSGTSDRFTGSGSGTDFTLKISRVEPDDLGVYYCGQGTQYPFTFGSGTKLEIK | – | 7
